From patent publication US20220017608A1 (Teva, published 2022)
Each block holds one binder with its values, some of them ahead of it. Where no end group is shown, it is not given here. The star is where a group is joined. Biotin = O=C1N[C@H]2[C@H](CS[C@H]2CCCCC(=O)*)N1

Key:
rat β-CGRP [1] = biological target: T1, rat β-CGRP (rat, not fully specified; C-terminal amide (CONH2); N-biotinylated when captured on the Biacore chip); test: Biacore, N-biotin-CGRP on chip, 37 C
T1 construct: also called β-rat
T1 peptide: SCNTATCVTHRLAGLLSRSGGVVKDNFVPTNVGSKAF

human α-CGRP [2] = biological target: T2, human α-CGRP (human, C-terminal amide (CONH2); N-biotinylated when captured on the Biacore chip); test: Biacore, N-biotin-CGRP on chip, 37 C
T2 construct: N-biotinylated in the Biacore assays; also called α-Hu; α-human
T2 peptide: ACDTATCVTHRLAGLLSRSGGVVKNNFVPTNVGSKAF

human β-CGRP = biological target: T3, human β-CGRP (human, not fully specified; C-terminal amide (CONH2); N-biotinylated when captured on the Biacore chip); test: Biacore, N-biotin-CGRP on chip, 37 C
T3 construct: also called β-human
T3 peptide: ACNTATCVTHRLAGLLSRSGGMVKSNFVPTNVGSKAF

rat α-CGRP [3] = biological target: T4, rat α-CGRP (rat, not fully specified; C-terminal amide (CONH2); N-biotinylated when captured on the Biacore chip); test: Biacore, N-biotin-CGRP on chip, 37 C
T4 construct: also called α-Rat; α-rat
T4 peptide: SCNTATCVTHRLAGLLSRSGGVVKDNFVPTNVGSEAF

cynomolgus monkey α-CGRP = biological target: T5, cynomolgus monkey α-CGRP (cynomolgus monkey); test: Biacore
T5 construct: also called cyno CGRP

human α-CGRP [4] = biological target: T2, human α-CGRP; test: Biacore, N-biotin-CGRP on chip, 25 C
rat α-CGRP [5] = biological target: T4, rat α-CGRP; test: Biacore, N-biotin-CGRP on chip, 25 C
human α-CGRP [6] = biological target: T2, human α-CGRP; test: competition binding assay on SK-N-MC cells: antibody blocks binding of human α-CGRP to the CGRP1 receptor; value in binding sites
human α-CGRP [7] = biological target: T2, human α-CGRP; test: blocking of human α-CGRP binding to the CGRP1-receptor in SK-N-MC cells; IC50 converted to binding sites
human α-CGRP [8] = biological target: T2, human α-CGRP; test: Biacore, ratio of KD against rat α-CGRP
rat β-CGRP [9] = biological target: T1, rat β-CGRP; test: Biacore (legend of Table 1)
human α-CGRP [10] = biological target: T2, human α-CGRP; test: Biacore, N-biotinylated CGRP captured on chip, 25 C
rat α-CGRP [11] = biological target: T4, rat α-CGRP; test: as above
human α-CGRP [12] = biological target: T2, human α-CGRP; test: competition binding assay on SK-N-MC cells: antibody blocks binding of human α-CGRP to the CGRP1 receptor; value in IgG molecules
amylin = biological target: T6, amylin (Homo sapiens (Human), UniProt P10997 34-70, not fully specified; Natural amylin has a C-terminal Tyr amide and a Cys2-Cys7 disulfide. The patent passages shown say nothing on this.); test: Biacore solution competition, chip probes free G1
T6 peptide: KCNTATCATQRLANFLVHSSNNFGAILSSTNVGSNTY

adrenomedullin = biological target: T7, adrenomedullin (Homo sapiens (Human), UniProt P35318 95-146, Natural adrenomedullin has a C-terminal Tyr amide and a Cys16-Cys21 disulfide. The patent passages shown say nothing on this.); test: Biacore solution competition, chip probes free G1
T7 sequence (peptide): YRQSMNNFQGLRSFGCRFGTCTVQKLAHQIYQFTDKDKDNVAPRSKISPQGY

calcitonin = biological target: T8, calcitonin (Homo sapiens (Human), UniProt P01258 85-116, not fully specified; Natural calcitonin has a C-terminal Pro amide and a Cys1-Cys7 disulfide. The patent passages shown say nothing on this.); test: Biacore solution competition, chip probes free G1
T8 peptide: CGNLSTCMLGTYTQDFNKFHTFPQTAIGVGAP

human α-CGRP [13] = biological target: T2, human α-CGRP; test: competition binding assay on SK-N-MC cells: antibody blocks binding of human α-CGRP to the CGRP1 receptor
N31A = biological target: T9, N31A (ends and bridges not checked); test: Biacore 3000, 25 °C, alanine scan: N-biotinylated peptide on SA chip, G1 Fab titrated; fold loss versus wild-type 25-37 fragment
T9 construct: also called HuαCGRP fragment 25-37 N31A
T9 peptide: Biotin-NNFVPTAVGSKAF
Experimental: (§1) Interaction analysis was conducted at 25° C. on a Biacore 3000™ system equipped with streptavidin-coated (SA) sensor chips (Biacore AB, Uppsala, Sweden) using a standard Biacore running buffer (HBS-P). […] Each amino acid between position 27-37 was then mutated individually to alanine and expressed the fold loss in affinity compared to the wild-type fragment. […] Fab fragments were titrated over the chip using 1 μM as the top concentration of a two-fold dilution series. Association and dissociation phases were monitored at 100 μl/min for 1 minute and 5 minutes respectively. Surfaces were regenerated with a mixture of 35% ethanol+25 mM NaOH+0.5M NaCl.

V32A = biological target: T10, V32A (ends and bridges not checked); test: as above
T10 construct: also called HuαCGRP fragment 25-37 V32A
T10 peptide: Biotin-NNFVPTNAGSKAF
Experimental: as §1

P29A = biological target: T11, P29A (ends and bridges not checked); test: as above
T11 construct: also called HuαCGRP fragment 25-37 P29A
T11 peptide: Biotin-NNFVATNVGSKAF
Experimental: as §1

V28A = biological target: T12, V28A (ends and bridges not checked); test: as above
T12 construct: also called HuαCGRP fragment 25-37 V28A
T12 peptide: Biotin-NNFAPTNVGSKAF
Experimental: as §1

T30A = biological target: T13, T30A (ends and bridges not checked); test: as above
T13 construct: also called HuαCGRP fragment 25-37 T30A
T13 peptide: Biotin-NNFVPANVGSKAF
Experimental: as §1

K35A = biological target: T14, K35A (ends and bridges not checked); test: as above
T14 construct: also called HuαCGRP fragment 25-37 K35A
T14 peptide: Biotin-NNFVPTNVGSAAF
Experimental: as §1

F27A = biological target: T15, F27A (ends and bridges not checked); test: as above
T15 construct: also called HuαCGRP fragment 25-37 F27A
T15 peptide: Biotin-NNAVPTNVGSKAF
Experimental: as §1

rat β-CGRP [14] = biological target: T1, rat β-CGRP; test: Biacore (legend of Table 1), rat β-CGRP

Kd (rat β-CGRP [1]): 0.152 nM
T1/2 (rat β-CGRP [1]): 2.45 h
koff (rat β-CGRP [1]): 7.85e-05 s⁻¹
kon (rat β-CGRP [1]): 516000 M⁻¹ s⁻¹
Kd (human α-CGRP [2]): 0.063 nM
T1/2 (human α-CGRP [2]): 5.3 h
koff (human α-CGRP [2]): 3.63e-05 s⁻¹
kon (human α-CGRP [2]): 587000 M⁻¹ s⁻¹
Kd (human β-CGRP): 0.155 nM
T1/2 (human β-CGRP): 2.76 h
koff (human β-CGRP): 6.98e-05 s⁻¹
kon (human β-CGRP): 451000 M⁻¹ s⁻¹
Kd (rat α-CGRP [3]): 2.57 nM
T1/2 (rat α-CGRP [3]): 0.48 h
koff (rat α-CGRP [3]): 0.000399 s⁻¹
kon (rat α-CGRP [3]): 155000 M⁻¹ s⁻¹
Kd (cynomolgus monkey α-CGRP): 0.063 nM
Kd (human α-CGRP [4]): 0.042 nM
T1/2 (human α-CGRP [4]): 24.7 h
koff (human α-CGRP [4]): 7.8e-06 s⁻¹
kon (human α-CGRP [4]): 186000 M⁻¹ s⁻¹
Kd (rat α-CGRP [5]): 1.22 nM
T1/2 (rat α-CGRP [5]): 3.12 h
koff (rat α-CGRP [5]): 6.18e-05 s⁻¹
kon (rat α-CGRP [5]): 50800 M⁻¹ s⁻¹
IC50 (human α-CGRP [6]): 1.8 nM
Ki (human α-CGRP [6]): 0.74 nM
IC50 (human α-CGRP [7]): 1.2 nM
fold more potent affinity than for rat α-CGRP (human α-CGRP [8]): 40 fold
Kd (rat β-CGRP [9]): 0.1 nM
Kd (human α-CGRP [10]): 0.04 nM
Kd (rat α-CGRP [11]): 1.2 nM
Ki (human α-CGRP [12]): 0.37 nM
binding result (amylin): no binding (tested: an excess)
binding result (adrenomedullin): no binding (tested: an excess)
binding result (calcitonin): no binding (tested: an excess)
IC50 (read off the curve) (human α-CGRP [13]): ~0.1 µg/mL
B1: antibody G1 (antibody, human IgG2, kappa, V domains shown)
VH: EVQLVESGGGLVQPGGSLRLSCAASGFTFSNYWISWVRQAPGKGLEWVAEIRSESDASATHYAEAVKGRFTISRDNAKNSLYLQMNSLRAEDTAVYYCLAYFDYGLAIQNYWGQGTLVTVSS
VL: EIVLTQSPATLSLSPGERATLSCKASKRVTTYVSWYQQKPGQAPRLLIYGASNRYLGIPARFSGSGSGTDFTLTISSLEPEDFAVYYCSQSYNYPYTFGQGTKLEIKR
notes: Humanized IgG2 delta-a antibody derived from muMAb7E9; also called anti-CGRP antibody G1

Fold loss in affinity (N31A): 1.9 fold
Fold loss in affinity (V32A): 6.1 fold
Fold loss in affinity (P29A): 2.8 fold
Fold loss in affinity (V28A): 1 fold
Fold loss in affinity (T30A): 1.7 fold
Fold loss in affinity (K35A): 8.1 fold
Fold loss in affinity (F27A): 1.4 fold
B2: Fab fragments of antibody G1 (Fab, V domains shown)
VH: EVQLVESGGGLVQPGGSLRLSCAASGFTFSNYWISWVRQAPGKGLEWVAEIRSESDASATHYAEAVKGRFTISRDNAKNSLYLQMNSLRAEDTAVYYCLAYFDYGLAIQNYWGQGTLVTVSS
VL: EIVLTQSPATLSLSPGERATLSCKASKRVTTYVSWYQQKPGQAPRLLIYGASNRYLGIPARFSGSGSGTDFTLTISSLEPEDFAVYYCSQSYNYPYTFGQGTKLEIK
notes: 'Purified Fab fragments of antibody G1 were generated'; also called G1 Fab

IC50 (human α-CGRP [7]): 37 nM
Kd (rat β-CGRP [14]): 17 nM
Kd (human α-CGRP [10]): 17 nM
Kd (rat α-CGRP [11]): 1 nM
B3: antibody G2 (antibody, V domains shown)
VH: EVQLQQSGPELVKPGASVKMSCKASGYTFTSSVMHWVKQKPGQGLEWIGYINPYNDGTKYNEKFKGKATLTSDKSSSTAYMELSSLTSEDSAVYYCAKGGNDGYWGQGTTLTVSS
VL: EIVLTQSPTTMAASPGEKITITCSASSSISSIYLHWYQQKPGFSPKVLIYRASNLASGVPARFSGSGSGTSYSLTIGTMEAEDVATYYCQQGSTIPFTFGSGTKLEIKR
notes: Anti-rat CGRP mouse monoclonal antibody (Wong et al. 1993); also called RN4901
